Reference: US20230183665A1, “THERMOSTABLE GLUCOCEREBROSIDASE” (TEIKYO UNIVERSITY, priority 2020, published 2023)

Legend:
[1] = Optimum temperature for glucocerebrosidase activity (Examples 5, 12, 20); assay type: biochemical; conditions: 100 μM cerebroside B, pH 5.5, 15 minutes at each temperature, average of three tests
Description: The glucocerebrosidase activity of the fraction was measured as follows: a predetermined amount of sample was added to a 50 mM acetate buffer solution (pH 5.5) containing 100 μM glucosylceramide (cerebroside B), 0.1% Tween 20, and 0.05% sodium cholate, and incubated at 37° C. for 15 minutes. Subsequently, a 4-fold amount of ethanol was added to the obtained reaction solution, mixed therewith, and then centrifuged at 15000 rpm for 20 minutes. The centrifuged supernatant was subjected to high-performance liquid chromatography analysis. In the high-performance liquid chromatography analysis, the sample was injected to TSKgel ODS-120T column (4.6 mm×30 cm), and a solvent having an ethanol concentration of 83% was flowed at a flow rate of 0.8 mL/min, followed by detection in a UV detector (ultraviolet absorption wavelength: 215 nm) to thereby measure the amount of ceramide newly generated through enzymatic reaction. The amount of ceramide was determined by using, as a standard, ceramide generated from cerebroside B by imiglucerase (manufactured by Sanofi S. A.), human-derived glucocerebrosidase. The molecular weight of the generated ceramide was examined by negative LC-MS (manufactured by Agilent Technologies, Inc.) to thereby confirm that it was ceramide generated from cerebroside B (ESI-MS m/z: 564.5[M-H]^−). Glucocerebrosidase activity per mL of the enzyme solution was calculated when the amount of the enzyme that generated 1 μmol of ceramide for 1 minute in the enzymatic reaction solution was defined as 1 unit (U).
RGC1 obtained in Example 2 and imiglucerase were each added to a 50 mM acetate buffer solution (pH 5.5) containing 100 μM glucosylceramide (cerebroside B), 0.1% Tween 20, and 0.05% sodium cholate, and incubated at each temperature for 15 minutes. Subsequently, a 4-fold amount of ethanol was added to the obtained reaction solution, mixed therewith, and then centrifuged under a condition of 15000 rpm for 20 minutes. The supernatant was subjected to high-performance liquid chromatography analysis to measure the amount of ceramide generated through enzymatic reaction. The high-performance liquid chromatography analysis was carried out in the same manner as in Example 2. The amount of ceramide and enzymatic activity were also calculated in the same manner as in Example 2. A temperature that attained the highest glucocerebrosidase activity was regarded as the optimum temperature. This test was conducted three times, and an average value was determined therefrom.
The optimum temperatures for the glucocerebrosidase activity of SGC1 obtained in Example 11 and imiglucerase were confirmed by the same method as in Example 5.
Enzyme extracts derived from various plants which were obtained in accordance with Example 19, the purified rice-derived RGC1 mentioned above and the purified soybean-derived SGC1 mentioned above were each added to a 50 mM sodium acetate buffer solution (pH 5.5) containing 100 μM glucosylceramide (cerebroside B), 0.1% Tween 20, and 0.05% sodium cholate, and incubated at each temperature for 15 minutes. Subsequently, a 4-fold amount of ethanol was added to the obtained reaction solution, mixed therewith, and then centrifuged at 15000 rpm for 20 minutes. The supernatant was subjected to high-performance liquid chromatography analysis to measure the amount of ceramide generated through enzymatic reaction. The high-performance liquid chromatography analysis was carried out in the same manner as in Example 5. The amount of ceramide and enzymatic activity were also calculated in the same manner as in Example 5. As a result, a temperature that attained the highest glucocerebrosidase activity was regarded as the optimum temperature. This test was conducted three times, and an average value was determined therefrom.

[2] = Thermostability: relative residual glucocerebrosidase activity after incubation at pH 5 and pH 7 (Examples 6, 13); assay type: physicochemical; conditions: 37° C.; pH 5 for 6 to 106 hours, pH 7 for 4 to 48 hours; FIGS. 1 and 2
Description: The glucocerebrosidase activity of the fraction was measured as follows: a predetermined amount of sample was added to a 50 mM acetate buffer solution (pH 5.5) containing 100 μM glucosylceramide (cerebroside B), 0.1% Tween 20, and 0.05% sodium cholate, and incubated at 37° C. for 15 minutes. Subsequently, a 4-fold amount of ethanol was added to the obtained reaction solution, mixed therewith, and then centrifuged at 15000 rpm for 20 minutes. The centrifuged supernatant was subjected to high-performance liquid chromatography analysis. […] The amount of ceramide was determined by using, as a standard, ceramide generated from cerebroside B by imiglucerase (manufactured by Sanofi S. A.), human-derived glucocerebrosidase. […] Glucocerebrosidase activity per mL of the enzyme solution was calculated when the amount of the enzyme that generated 1 μmol of ceramide for 1 minute in the enzymatic reaction solution was defined as 1 unit (U).
RGC1 obtained in Example 2 and imiglucerase were each incubated at pH 5 simulating lysosome (50 mM acetate buffer solution (pH 5.0) containing 0.1% Triton X-100 and 0.05% sodium cholate) at 37° C. for 6 to 106 hours or at pH 7 simulating cytoplasm (50 mM potassium phosphate buffer solution (pH 7.0) containing 0.1% Triton X-100 and 0.05% sodium cholate) at 37° C. for 4 to 48 hours. […] This test was conducted three times, and an average value was determined therefrom. […]

B1: RGC1: rice-derived glucocerebrosidase purified from rice stems; identical to Os3BGlu6, belongs to GH1; SEQ ID NO: 1 (protein)
chain: MGRIKSSSGRCSTARLEAVAVLVVVFGVASSSLRGCIAQQSGGGLTRGSFPEGFVFGTASAAYQYEGAVKEDGRGQTIWDTFAHTFGKITDFSNADVAVDQYHRFEEDIQLMADMGMDAYRFSIAWSRIYPNGVGQVNQAGIDHYNKLIDALLAKGIQPYVTLYHWDLPQALEDKYKGWLDRQIVDDFAAYAETCFREFGDRVKHWITLNEPHTVAIQGYDAGLQAPGRCSVLLHLYCKAGNSGTEPYVVAHHFILAHAAAASIYRTKYKATQNGQLGIAFDVMWFEPMSNTTIDIEAAKRAQEFQLGWFADPFFFGDYPATMRARVGERLPRFTADEAAVVKGALDFVGINHYTTYYTRHNNTNIIGTLLNNTLADTGTVSLPFKNGKPIGDRANSIWLYIVPRGMRSLMNYVKERYNSPPVYITENGMDDSNNPFISIKDALKDSKRIKYHNDYLTNLAASIKEDGCDVRGYFAWSLLDNWEWAAGYSSRFGLYFVDYKDNLKRYPKNSVQWFKALLKT
modifications: Glycine max (L.) Merr. Enrei
For B1, the “Optimum temperature (° C.)” value ([1]; Example 5) was 54.0 °C, the “Optimum temperature (° C.)” value ([1]; Example 20) was 54.0 °C and the “stability (relative residual activity) compared with imiglucerase” value [2] was “evidently superior in stability to imiglucerase”.
